Here are results for three molecules from US20250296958A1, “GL[…] E[…]” (THE ADMINISTRATORS OF THE TULANE EDUCATIONAL FUND, priority 2022, published 2025).

For experiment [1], the target named is kappa opioid receptor, P41145. In words: PDSP receptor binding; log of Ki in M.
Experiment [2] has as its target mu opioid receptor (UniProt P35372). Briefly: PDSP receptor binding.
For experiment [3] the target is unchanged. In words: PDSP receptor binding; log of Ki in M.
Experiment [4] concerns the target kappa opioid receptor (UniProt P41145). In words: PDSP receptor binding; binding eliminated by the text.
In experiment [5] the target is delta opioid receptor (UniProt P41143). The experiment is described as above.
The target in experiment [6] is mu opioid receptor (UniProt P35372). Briefly: PDSP receptor binding; against the glycosylated Trp analogs.
In experiment [7] the target is kappa opioid receptor (UniProt P41145). Briefly: PDSP receptor binding, selectivity against MOR; from the 10,000 nM ceiling.
Experiment [8] concerns the target delta opioid receptor (UniProt P41143). The description is as above.

Bridges are numbered along the chain shown (N, C = ends). Where no end group is shown, it is not given here. [ ]: non-standard residue; d: D form. Glc = glycosylated with D-glucose; Lact = not defined here

As to Y[dK]WFES-NH2 (lactam 2-5) [Analog A8: Tyr-c[D-Lys-Trp-Phe-Glu]-Ser-NH2], in experiment [1], the Log Ki was -5.98.
In the case of YK[dNal]FES(Lact)-NH2 (not fully specified; reading uncertain) [Analog A5 (D-Nal at position 3, C-terminus Ser(Lact)CONH2)], the Ki with mu opioid receptor [2] was 0.0553 µM; with kappa opioid receptor [4], more than 10 µM; in the experiment with delta opioid receptor [5], more than 10 µM. In the experiment with mu opioid receptor [3], this molecule yielded a Log Ki of -7.26. The molecule further had a further fold reduction of MOR binding by D-Nal at position 3 with mu opioid receptor [6] of 11 fold. Moreover, the kap/mu (ratio of Ki at KOR to Ki at MOR) with kappa opioid receptor [7] is more than 181. In the experiment with delta opioid receptor [8], the del/mu (ratio of Ki at DOR to Ki at MOR) is more than 181.
For YK[dNal]FES(Glc)-NH2 (not fully specified) [Analog A4 (D-Nal at position 3, C-terminus Ser(Glc)CONH2)], the results for the Ki in the experiment with mu opioid receptor [2], with kappa opioid receptor [4] and with delta opioid receptor [5] were 0.0635 µM, more than 10 µM and more than 10 µM, respectively. For the same molecule, the Log Ki with mu opioid receptor [3] is -7.2. The molecule further registered a further fold reduction of MOR binding by D-Nal at position 3 in the experiment with mu opioid receptor [6] of 11 fold. Further, the kap/mu (ratio of Ki at KOR to Ki at MOR) in the experiment with kappa opioid receptor [7] was more than 157. Further, the del/mu (ratio of Ki at DOR to Ki at MOR) with delta opioid receptor [8] was more than 157.

What is called Ki is a measure of affinity in units of concentration, obtained from inhibition or displacement. Read a high Ki as lower affinity.
